From patent US20220177587A1, “METHODS AND USES OF VARIANT CD80 FUSION PROTEINS AND RELATED CONSTRUCTS” (Alpine Immune Sciences, Inc., priority 2018, published 2022)
Positions count from the first letter of the chain named. In names and notes the source's numbering stands. Several values for one entry are separate records, joined by “and”; a condition that tells them apart may be missing. Equal values may be shown once.

B1: R29V/M43Q/E81R/L85I/K89R/D90L/A91E/F92N/K93Q/R94G (protein)
chain: VIHVTKEVKEVATLSCGHNVSVEELAQTVIYWQKEKKMVLTMQSGDMNIWPEYKNRTIFDITNNLSIVILALRPSDEGTYRCVVIKYERLENQGEHLAEVTLSVKADFPTPSISDFEIPTSNIRRIICSTSGGFPEPHLSWLENGEELNAINTTVSQDPETELYAVSSKLDFNMTTNHSFMCLIKYGHLRVNQTFNWNTTKQEHFPDN
B2: K36G/K37Q/M38I/L40M/F59L/E81V/L85R/K89N/A91T/F92P/K93V/R94L/E99G/T130A/N149S (protein)
chain: VIHVTKEVKEVATLSCGHNVSVEELAQTRIYWQKEGQIVMTMMSGDMNIWPEYKNRTILDITNNLSIVILALRPSDEGTYVCVVRKYENDTPVLEHLAGVTLSVKADFPTPSISDFEIPTSNIRRIICSASGGFPEPHLSWLENGEELSAINTTVSQDPETELYAVSSKLDFNMTTNHSFMCLIKYGHLRVNQTFNWNTTKQEHFPDN
B3: E88D/K89R/D90K/A91G/F92Y/K93R/N122S/N177S (protein)
chain: VIHVTKEVKEVATLSCGHNVSVEELAQTRIYWQKEKKMVLTMMSGDMNIWPEYKNRTIFDITNNLSIVILALRPSDEGTYECVVLKYDRKGYRREHLAEVTLSVKADFPTPSISDFEIPTSSIRRIICSTSGGFPEPHLSWLENGEELNAINTTVSQDPETELYAVSSKLDFNMTTSHSFMCLIKYGHLRVNQTFNWNTTKQEHFPDN
B4: K36G/K37Q/M38I/L40M (protein)
chain: VIHVTKEVKEVATLSCGHNVSVEELAQTRIYWQKEGQIVMTMMSGDMNIWPEYKNRTIFDITNNLSIVILALRPSDEGTYECVVLKYEKDAFKREHLAEVTLSVKADFPTPSISDFEIPTSNIRRIICSTSGGFPEPHLSWLENGEELNAINTTVSQDPETELYAVSSKLDFNMTTNHSFMCLIKYGHLRVNQTFNWNTTKQEHFPDN
modifications: CD80 v49 ECD
B5: T41I/A91G (protein)
chain: B4 chain with G36K, Q37K, I38M, M40L, T41I, A91G
modifications: CD80 v44 ECD
B6: K36G/L40M (protein)
chain: B4 chain with Q37K, I38M
B7: E88D/K89R/D90K/A91G/F92Y/K93R (protein)
chain: VIHVTKEVKEVATLSCGHNVSVEELAQTRIYWQKEKKMVLTMMSGDMNIWPEYKNRTIFDITNNLSIVILALRPSDEGTYECVVLKYDRKGYRREHLAEVTLSVKAD
modifications: CD80 v48 IgV
B8: R29D/Y31L/Q33H/K36G/M38I/T41A/M42T/M43R/M47T/E81V/L85R/K89N/A91T/F92P/K93V/R94L/L148S/N149S (protein)
chain: VIHVTKEVKEVATLSCGHNVSVEELAQTDILWHKEGKIVLATRSGDTNIWPEYKNRTIFDITNNLSIVILALRPSDEGTYVCVVRKYENDTPVLEHLAEVTLSVKADFPTPSISDFEIPTSNIRRIICSTSGGFPEPHLSWLENGEESSAINTTVSQDPETELYAVSSKLDFNMTTNHSFMCLIKYGHLRVNQTFNWNTTKQEHFPDN
B9: E24G/R29D/Y31L/Q33H/K36G/M38I/T41A/M43R/M47T/F59L/E81V/L85R/K89N/A91T/F92P/K93V/R94L/H96R/N149S/C182S (protein)
chain: B8 chain with E24G, T42M, F59L, H96R, S148L, C182S
B10: R29D/Y31L/Q33H/K36G/M38I/T41A/M43R/M47T/E81V/L85R/K89N/A91T/F92P/K93V/R94L/N149S (protein)
chain: B8 chain with T42M, S148L
B11: Q33L/E35D/M47L/A71G/F925 (protein)
chain: VIHVTKEVKEVATLSCGHNVSVEELAQTRIYWLKDKKMVLTMMSGDLNIWPEYKNRTIFDITNNLSIVILGLRPSDEGTYECVVLKYEKDASKREHLAEVTLSVKADEPKSSDKTHTCPPCPAPEAEGAPSVFLFPPKPKDTLMISRTPEVTCVVVDVSHEDPEVKFNWYVDGVEVHNAKTKPREEQYNSTYRVVSVLTVLHQDWLNGKEYKCKVSNKALPAPIEKTISKAKGQPREPQVYTLPPSREEMTKNQVSLTCLVKGFYPSDIAVEWESNGQPENNYKTTPPVLDSDGSFFLYSKLTVDKSRWQQGNVFSCSVMHEALHNHYTQKSLSLSPG
B12: H18Y/E35DN68M/L97Q (protein)
chain: B11 chain with H18Y, L33Q, L47M, V68M, G71A, S92F, L97Q
B13: V22D/E35D/M47L/L70M/L97Q (protein)
chain: B4 chain with V22D, E35D, G36K, Q37K, I38M, M40L, M47L, L70M, L97Q, I118T
modifications: CD80 v283 ECD
B14: T28Y/Q33H/E35D/D46V/M47I/A71G (protein)
chain: VIHVTKEVKEVATLSCGHNVSVEELAQYRIYWHKDKKMVLTMMSGVINIWPEYKNRTIFDITNNLSIVILGLRPSDEGTYECVVLKYEKDAFKREHLAEVTLSVKADFPTPSISDFETPTSNIRRIICSTSGGFPEPHLSWLENGEELNAINTTVSQDPETELYAVSSKLDFNMTTNHSFMCLIKYGHLRVNQTFNWNTTKQEHFPDN
modifications: CD80 v291 ECD
B15: H18Y/E35D/N48K (protein, UniProt P33681 35-288, looked up, variant H18Y E35D N48K)
T-lymphocyte activation …: VIHVTKEVKEVATLSCGYNVSVEELAQTRIYWQKDKKMVLTMMSGDMKIWPEYKNRTIFDITNNLSIVILALRPSDEGTYECVVLKYEKDAFKREHLAEVTLSVKADFPTPSISDFEIPTSNIRRIICSTSGGFPEPHLSWLENGEELNAINTTVSQDPETELYAVSSKLDFNMTTNHSFMCLIKYGHLRVNQTFNWNTTKQEHFPDNLLPSWAITLISVNGIFVICCLTYCFAPRCRERRRNERLRRESVRPV
B16: Q27H/E35D/D46V/M47L/A71G (protein, UniProt P33681 35-288, looked up, variant Q27H E35D D46V M47L A71G)
T-lymphocyte activation …: B15 T-lymphocyte activation … with Y18H, Q27H, D46V, M47L, K48N, A71G
B17: E35D/M38T/D46E/M47V/N48S (protein, UniProt P33681 35-288, looked up, variant E35D M38T D46E M47V N48S)
T-lymphocyte activation …: B15 T-lymphocyte activation … with Y18H, M38T, D46E, M47V, K48S
B18: E35D/D46E/M47V/A71D (protein, UniProt P33681 35-288, looked up, variant E35D D46E M47V A71D)
T-lymphocyte activation …: B15 T-lymphocyte activation … with Y18H, D46E, M47V, K48N, A71D
B19: E35D/T41S/M47V/A71G/K89N (protein, UniProt P33681 35-288, looked up, variant E35D T41S M47V A71G K89N)
T-lymphocyte activation …: B15 T-lymphocyte activation … with Y18H, T41S, M47V, K48N, A71G, K89N
B20: E35D/M47V/N48T/L85Q (protein, UniProt P33681 35-288, looked up, variant E35D M47V N48T L85Q)
T-lymphocyte activation …: B15 T-lymphocyte activation … with Y18H, M47V, K48T, L85Q
B21: E35D/A71D/L72V/R73H/E81K (protein, UniProt P33681 35-288, looked up, variant E35D A71D L72V R73H E81K)
T-lymphocyte activation …: B15 T-lymphocyte activation … with Y18H, K48N, A71D, L72V, R73H, E81K
B22: E35D/M38T/M43V/M47V/N48R/L85Q (protein, UniProt P33681 35-288, looked up, variant E35D M38T M43V M47V N48R L85Q)
T-lymphocyte activation …: B15 T-lymphocyte activation … with Y18H, M38T, M43V, M47V, K48R, L85Q
modifications: Fc fusion

tested on: human pan T cells; test: Anti-CD3 coimmobilization assay, IFN-gamma; assay type: cell-based; conditions: Table E33; culture supernatant, 3 days
Summary of the method: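 Plates coated overnight with 1 nM or 4 nM OKT3 anti-CD3 plus 1–80 nM rCD80.Fc variants, then washed. Purified human pan T cells or BC3 T cell clone (100,000/well) cultured 3 days in Ex-Vivo 15; supernatant IFN-gamma measured by ELISA.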

Molecule | Coimmobilization with anti-CD3 IFN-gamma
B1 | 342 pg/mL
B2 | 507 pg/mL
B3 | 773 pg/mL
B4 | 427 pg/mL
B5 | 433 pg/mL
B6 | 699 pg/mL
B7 | 1125 pg/mL and 944 pg/mL
B8 | 464 pg/mL
B9 | 406 pg/mL
B10 | 405 pg/mL

target: CD28 (Homo sapiens, UniProt P10747); test: Jurkat/IL2 + K562/OKT3/PD-L1 reporter assay; assay type: cell-based; design: host or cells: Jurkat cells expressing an IL-2-luciferase reporter; conditions: Table E7; K562/OKT3/PD-L1 aAPC; 50 nM

Fold Increase over WT CD80-IgV-Fc | Relative Luciferase Units (RLU), CD80-Fc Conc. 50 nM [RLU] | Molecule
0.7 | 394 | B11
7.7 | 4336 | B12

same assay, conditions: Table E8; K562/OKT3/PD-L1 aAPC; 50 nM

Relative Luciferase Units (RLU), CD80-Fe Cone 50 nM [RLU] | Fold Increase over WT CD80-IgV-Fe | Molecule
1542 | – | B13
580 | 2.8 | B14
1230 | – | B15
978 | – | B16
1315 | – | B17
683 | – | B18
1023 | – | B19
897 | 4.4 | B20
282 | – | B21
680 | 3.3 | B22

tested on: allogeneic CD4+ T cells; test: Mixed Lymphocyte Reaction (MLR), IFN-gamma; assay type: cell-based, human; conditions: Table E33; culture supernatant
Summary of the method: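 Monocyte-derived DCs (7 days in rIL-4 500 U/ml plus rGM-CSF 250 U/ml), 10,000 matured cells, co-cultured with 100,000 allogeneic CD4+ T cells and variant CD80-Fc fusion proteins in Ex-Vivo 15 medium. IFN-gamma in supernatant measured by ELISA on day 5 against rIFN-gamma standard.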

Molecule | MLR IFN-gamma levels
B1 | 11695 pg/mL
B2 | 3095 pg/mL
B3 | 6345 pg/mL
B4 | 811 pg/mL
B5 | 26052 pg/mL
B6 | 30558 pg/mL
B7 | 9356 pg/mL and 5922 pg/mL
B8 | 17387 pg/mL
B9 | 13146 pg/mL
B10 | 24029 pg/mL
